This assay has as its target GFP-TIpA fusion protein (Salmonella typhimurium) [GFP: P42212]. Briefly: cell-based or functional assay.

We go through one substance from US20070295907A1.

“GFP-TIpA fusion protein (from UniProt P42212 1-238)” showed a fluorescent intensity when excited at 395 nm, temperature raised from 10° C. to 55° C. of 30%.
